The DeepSol protein solubility set

Assay: soluble on expression in E. coli; label from the status in PepcDB or PDB records

Sequence	soluble on expression in E. coli
MNIQNIRTLLDTVAVPNTARTLGGEKAVRSVEQRSDGIHIALHFGFPVAHIASETADRIQEILMPETGDTHIHLSMDTEIGTHKVQPGVTTIKGVKNIIAVASGKGGVGKSTTTANLAAAMARMGARVGVLDADLYGPSQPTMLGVDDRKPDQKNQKLIPVESSDGIQVMSIGFLVDTDQAVVWRGPMVSQALQQLMFQSEWDEVDYLFIDLPPGTGDIQLTLSQRIPVTGSVIVTTPQDIALIDARKAVDMFRKVNIPILGVLENMSVHICTNCGHSEALFGTDGGKDFAARLNVPLLGQLPLSLPVREAMDGGTPAQLFDEHPAIARIYTDAAFQIALSIADKGKDFSSRFPKIVVE	not soluble
MGHHHHHHSHMCYNRESNFANQTIDFYCYTEYNGFMTTKGANVMTEVEMKEQVQEVLDKLRPFLLRDGGDCELVDVDEGIVKLRLLGACGSCPSSTITLKAGIERALLEEVPGVVEVEQVF	soluble
MAHHHHHHMALPPATLQSPAVPDGQQHLGCSGGSGHLSVAALDQSRTPLYSAERRASLCDESGALAAVSLSADASRPTAANFVKGELIGKGSYGAVYRGMQRSNNRIIAMKEIRLPGVVEQQLRQSEKLAATAASPAGVSSPVLPASNSVKGESALAKEVAAIKRELTLLKQLNHPNIVRYLNDEVVDGTLRIYMDYVSGGSVTAALKSYGSFEEPQAAALCFQLLQGLVYMHRRGIIHRDLKGDNLLLETSSQLKIADLGTAKSIFSSATMTTSIVGTAYFMAPEVLQPSGAAVGTAADIWSVGCCLIEMMTGKPPLSDLPNQFTVMMAIGGSATVPLDKYIPADNTWSDEVLDFISQCLRANPAQRPTAVDLLQHSWFAKFLNVMHAPSMSTPATLDSMLTPTAPPIERPFTLSPQRQMVSPICSPNLTAALTPGYAGPQYSSGQPESSASSHTSRERKGKRDKRVSARRHARYSTSGATSATSRRSQESSQASTPQYSSGTRTRDGSAQSASLPRSHSHPGRQQGPSSKRRAHAHIVGHGLPRDDSRQSFSSEQAMPQHTCTPGSGGAGDGSGENKTKTAFLPAITHNGSVAPSPCGYSLDVSRCSRSLKNSGSSREPTKACLYTTDTENKS	not soluble
MSLTQQITLIKDKILSDNYFTLHNITYDLTRKDGEVIRHKREVYDRGNGATILLYNTKKKTVVLIRQFRVATWVNGNESGQLIESCAGLLDNDEPEVCIRKEAIEETGYEVGEVRKLFELYMSPGGVTELIHFFIAEYSDNQRANAGGGVEDEDIEVLELPFSQALEMIKTGEIRDGKTVLLLNYLQTSHLMDEGGSHHHHHH	soluble
MKALLEWIRKDMKPALGVTEPAAIALACAAARAMTEEPAECLLVRENSGIYKNAFTCGIPGTDKIGNEFAAALGCVAGDKEKGLLVLEEISDADVEAAKRFIEDGKVKVEVSQISSELFIYACVRTEHDCCEAEIRGQHTNICRLVKNGRVLLEKKTRELEETARPGSLTDYTMEEFFRFAKETPVEDLYFIREAYRVNLELAKAALTSERCTLTKSLLAFNGGTDVSGDLRATARFFAGAASEARVLGLDKPAMSITGSGNHGIICTMPLYAMYRVEHHSEESLLRATVLSYLITMYMKEYSGKLSAFCGCAVAAGTGMACAMTFMRGGGFEEVLATLNNMAASIVGMICTGGNHACCMKVLAAVDTAVTSTELALSGKCISPEHGVADVCPEKTMQNIGLIAYPGMTETERVILEIMQNKKGGAKGHEETD	not soluble
MADTRPERRFTRIDRLPPYVFNITAELKMAARRRGEDIIDFSMGNPDGATPPHIVEKLCTVAQRPDTHGYSTSRGIPRLRRAISRWYQDRYDVEIDPESEAIVTIGSKEGLAHLMLATLDHGDTVLVPNPSYPIHIYGAVIAGAQVRSVPLVEGVDFFNELERAIRESYPKPKMMILGFPSNPTAQCVELEFFEKVVALAKRYDVLVVHDLAYADIVYDGWKAPSIMQVPGARDVAVEFFTLSKSYNMAGWRIGFMVGNKTLVSALARIKSYHDYGTFTPLQVAAIAALEGDQQCVRDIAEQYKRRRDVLVKGLHEAGWMVEMPKASMYVWAKIPEPYAAMGSLEFAKKLLNEAKVCVSPGIGFGDYGDTHVRFALIENRDRIRQAIRGIKAMFRADGLLPASSKHIHENAE	soluble
MSKHTLIRRAVLEKLESVTGAPVTLFDGLPAFVEQEDLPAIAVWLTDAQYTGLMTDEDDWQATLHTAVFLRAQAPDTELDIWMEEKIFPALEEVSGLERLIDTMTPLGYDYQRDSEMATWGMAEITYRITYTN	soluble
MSLAEQIEFDQAHLTLQEITEALDNGRFVHVRRQLQDMEPEDIAHLLEASPRKAREVLWQLTDPEDYGEILDELNEDVKDALVSKMAPEKLAEATEGMDIDDVAYVLRSLPDDVSREVLSQMDAADRMRVETALSYPEDTAGGLMNTDVITIRADVDVDVVLRYLRMKGELPEATDALYVIDDESKLIGHLSLVTLLTTQPDVPVSEVMDDADEAIKVDMKDSDIANLFERRNWVSAPVVDENQHLVGRITIDDVVDIIREDAEHSMMSMAGMDDDEDTFAPEGHHHHHH	soluble
MGSDKIHHHHHHMERFCCVNQINYIQMNPLEAKFKTSALRSWKTDQADAHKLACLGPTLKQTDNLPIHELIFFELRERVRFHLEIENEQNRLKFQILELLHQTFPGLERLFSSRYSIIALNIAEIFTHPDMVLDIDKEVLITHIFNSTDKGMSMDKATKYALQLRVIAQESYPNVDRHSFLVEKLRLLIQQLKQSIHHPKQLDDAMIQLAQQLDYFENIHSIPGIGKLSTAMIIGEIGDIKRFKSNKQLNAFVGIDIKRYQSGHTHCRDTINKRGNKKARKLLFWVIMNIIRGQHHYDNHVVDYYYKLRKQPNEKPHKTAIIACINRLLKTIHYLVMNHKLYDYQMSPH	not soluble
MIISDVLYGEFEVDQVVEELISSKSMQRLKGIHQNGASYLMNEKWNVTRFDHSVGVMLLVKKLGGSVKEQIASLLHDVSHTAFSHVIDYVFDNEDESYHEEIFSSVVKNSEIPAILAKHGYNYEDILLDDSKWTLLERSAPELCADRVDYTLRDMYTYGYISLEEVHRFLEDIIAVEGKMVVQSVEMAEWFTETYYKEVIDFFMKPMNIYGNDMLAKTLKLSLHKKVIHADDFLLEDEELISKLQQCNDPEVEALLSKVHPNVKVKEDRNDYDLHQKNKVRLIDPPLLREGKIVQSSVVSENIRQISDIAYEKAVRGMYVKVISN	not soluble
NSLTTHYRRSQLIALPVPGGKAKVEYCYAVNVPGDREIVTHSFAEWAVGDFNRQKETVLCDKLTAGSKITTECPSESFVGSRKHNGLSTSAKVMSMNASARSNSFVVNSGK	not soluble
MSLSVEFNKQQVRPRSEISPQDCWDITPLYLNRKAWKADLDSFGLKTDGSPTWPALQATQYQLDNSESLLSLLTTLFSIERKLNKLYVYAHLTHDQDITNQEGIADLKSITHLHTLFAEETSWVQPALTSLSESLIAQHLSAPCLAPYRFYLEKIFRLSIHTGTPGEEKILASAFTPLEVASKAFSSLSDSEIPFGQATDSEGNSHPLSHALASLYMQSTDRELRKTSYLAQCERYHSYRHTFANLLNGKIQAHVFYAKNKRYNSCLQAALYHNNIPTTVYTNLIDIVKKNSSLITKYFSIKQRCLNLKDFHFYDVYAPLSQSKEKKYTFQEAVDLIYTSLSPLGTEYIDTLKQGLTTQGWVDKYENLNKRSGAYSSGCYDSHPYVLLNYTGTLYDVSVIAHEGGHSMHSYFSRKHQPFHDAQYPIFLAEIASTLNEMLLMDSMLKESDSKEEKITILTRCLDTIFSTLFRQVLFASFEYDIHHAAEHGVPLTEEYLSSTYKNLQNEFYGEIITFDVLSNIEWARIPHFYYNFYVYQYATGIIAALCFLEKILNNEDNALNSYLNFLKSGGSDFPLEILKKSGLDMGTVEPIQKAFCFIEKKIQELSSLIEGHHHHHH	soluble
MELFKEISQEESNKDSKENDNINEEIDIEQLKDKVKDLELQLEYEIKQHNVEIAEREETIKILETRIQELEHYKNDITEKDEAIINMSEKLLILSNKYDILVKESKLQEEELKHFKNKKKYRNDKTNEYILGLRNQNDEIKKEHELLNEKYAQLVKEYAILQNSCKVLNEQLENNQKNMELLIKEKSNNLDEKTAIKILNIGSKELIHKRVHNKNVDELSNLKLELEYKDMILNKLMRKQVSEGKTIKVEYTNNENKFENEKKLGEMYQKYLDSVCDNDNLKKEINKLHNKINDMKVEEEEHLKTISILRDYINKMYKEDVNINQFDDLINNILKDNTSLNEELSKQKRKNMADIYYFTKELQIVKKDKFKIIEKFDSKKVTNIPHLYEPLNLTLSKENNKREISDDDDDNKGPKGDLNFLKKNSDINCSESNIKKPLKTNDLVHIYMQDYMNNVQNKA	not soluble
MAHHHHHHMSIDAGLCDRYVVFLDIDGVLLPVPKFTFGGGNLSGRCAQTLKRLIAALGGRDKVTLVLSSTWRNHPVMVDRLNTFMQKEAGDGIPVVSERTPNGTVLMSSVTYYADDPSEQRLVRDRVDEVYRWLHTHITDHPEAIGGRWFAIDDMQLDVDERMRGHFLHTQTDVGITEADVDTACAMIASHPSPTEAYAAAVAALADPALKAEEVEIQRVLQSRLEAQLAATTAELTEAQEKMAALSAEKKDLIKELAEKQRSIDDMRYRLAVYDFSKRYPCLATAVELAGTKSGAERRAMDAAIRTFVTLLMDRKELQKKMRSEAKKVKQAS	not soluble
MSLADIGSDHAYLPCYAVLNHKASGAIAGEITDGPFLSAKRQVEKSGLNSHISVRQGDGLEVIKKGEADAITIAGMGGALIAHILEAGKDKLTGKERLILQPNIHAVHIREWLYKERYALIDEVILEEDGKCYEVLVAEAGDRDAAYDGISLSAGMLVGPFLAKEKNAVFLKKWTQELQHTQSIYEQISQAADTEQNKQKLKELADRMELLKEVIDHGEGHHHHHH	soluble
MSLKKIQFFDTTLRDGEQTPGVNFDVKEKIQIALQLEKLGIDVIEAGFPISSPGDFECVKAIAKAIKHCSVTGLARCVEGDIDRAEEALKDAVSPQIHIFLATSDVHMEYKLKMSRAEVLASIKHHISYARQKFDVVQFSPEDATRSDRAFLIEAVQTAIDAGATVINIPDTVGYTNPTEFGQLFQDLRREIKQFDDIIFASHCHDDLGMATANALAAIENGARRVEGTINGIGERAGNTALEEVAVALHIRKDFYQAETNIVLNQFKNSSDLISRLSGMPVPRNEGHHHHHH	soluble
MALKLKLKMPSSSASNSPQPPPPESHSPEQPKLPKLKIKAPSKTPVSSTPDSSMALKRPQEEQSTGENPKKLKLSLSKTKENGRPKGLPRVRIKPTRIPGEGYDSEAPDLEDDPLIEQGIIIRFLNDSNLDFVHNAVDSGDLTGLNVKWVTKEKAIVNVNSILYSARLIDLPTVTEIFKTVDRKNVFKTLDICQILLVLHVVDPAKLNIDTDFEVPEEFLFNHPFYKYVKNNEIKKKRMVLKDGLLQPFQDVYRRFRPTKVDHRVILDIESKVDELIKLDNEADESHFELLDSKTAQQSRFGTSATPSAVNSPVAMRMEGPEVEPGRFSNVQDHENEEDDEEEDEEDYDDDDLQDDDMELHLEQELEKVLDGELSESEVTIPTSMAGILTNDVGNGISIMTNGEQSEDIDGDEQDDEEEEEEEEEDGDDEEEEEEEEEEENEEGDSESGKQHVKLLEEEIFELEKAVAHHQKNLSTASSKMLRMKFQNTYTSLKASLDSKKRDLAKLLDEQEQQQEQKQPKTTVDEKSQEAEHSVEAEAEIEAQVEADAEDGDEDEDIDQGDDMNQENNNNNGDSDIDEDNADDLDDLF	not soluble
MSLLFYVAYLGFYIAPTKLVRNKIKSWLLNASEYDFTDIKEGIRLHLNESPFEPPQFIIDAVKMYLSKGNRYQHPDLLEKYRELAAEYSKVEPENIYPSVGADGSIRAIFYNLVEPGDTILTNYPSYSMYSVYSSVRGTKVIKVNLKEDNEWWKENTDDLLAQAEKVELVIIDDPNNPTGSPMLNGKKELIGQLAENTKGFVVIDEAYYEFGGYTVSPYIYDYPNVLVVRTLSKAFSLASYRLGYTIANEEIVKALMKSSTPFDIPLPSLIAGITALENPSYIKDVVNIVNRNREILYQGLKNLNLKVYKSITNFLLIKDNRNLQEMLMRHGIAIRKLYDNFYRITIGTEDQCKMVIDKLGEELENSNSEGHHHHHH	not soluble
